In PMC7417555, “Comparative structural analyses and nucleotide-binding characterization of the four KH domains of FUBP1”:

Legend:
FUBP1 KH3 [1] = molecular target: T1, FUBP1 KH3 (UniProt Q96AE4 275-339); assay: EMSA; ITC: 25 mM HEPES pH 7.5, 50 mM NaCl (150 mM for tandem and KH1-4), 0.5 mM TCEP, 20 C; native PAGE: 200 uM protein, 5x ssDNA, 25 mM HEPES pH 7.5, 50 mM NaCl, 0.5 mM TCEP, 4 C, 0.5x TBE (KH4 0.5x TAE); conditions: protein: recombinant; tags: His6 removed by TEV
FUBP1 KH1 [2] = molecular target: T2, FUBP1 KH1 (UniProt Q96AE4 100-164); assay: as above; conditions: protein: recombinant; tags: His6 removed by TEV
FUBP1 KH4 [3] = molecular target: T3, FUBP1 KH4 (UniProt Q96AE4 376-443); assay: ITC; 50 mM NaCl; no preference between fragments 7 and 8; ITC: 25 mM HEPES pH 7.5, 50 mM NaCl (150 mM for tandem and KH1-4), 0.5 mM TCEP, 20 C; native PAGE: 200 uM protein, 5x ssDNA, 25 mM HEPES pH 7.5, 50 mM NaCl, 0.5 mM TCEP, 4 C, 0.5x TBE (KH4 0.5x TAE); conditions: protein: recombinant; tags: N-terminal His6 kept in native PAGE; removed by TEV in general protocol
FUBP1 KH2 [4] = molecular target: T4, FUBP1 KH2 (UniProt Q96AE4 185-251); assay: ITC; 50 mM NaCl; preferred over fragment 8; ITC: 25 mM HEPES pH 7.5, 50 mM NaCl (150 mM for tandem and KH1-4), 0.5 mM TCEP, 20 C; native PAGE: 200 uM protein, 5x ssDNA, 25 mM HEPES pH 7.5, 50 mM NaCl, 0.5 mM TCEP, 4 C, 0.5x TBE (KH4 0.5x TAE); conditions: protein: recombinant; tags: His6 removed by TEV
FUBP1 KH2 [5] = molecular target: T4, FUBP1 KH2; assay: EMSA; ITC: 25 mM HEPES pH 7.5, 50 mM NaCl (150 mM for tandem and KH1-4), 0.5 mM TCEP, 20 C; native PAGE: 200 uM protein, 5x ssDNA, 25 mM HEPES pH 7.5, 50 mM NaCl, 0.5 mM TCEP, 4 C, 0.5x TBE (KH4 0.5x TAE); conditions: protein: recombinant; tags: His6 removed by TEV
FUBP1 KH4 [6] = molecular target: T3, FUBP1 KH4; assay: as above; conditions: protein: recombinant; tags: N-terminal His6 kept in native PAGE; removed by TEV in general protocol
FUBP1 KH3-4 = FUBP1 KH3-4 (UniProt Q96AE4 275-443); assay: ITC; 150 mM NaCl; range given for the three tandems; ITC: 25 mM HEPES pH 7.5, 50 mM NaCl (150 mM for tandem and KH1-4), 0.5 mM TCEP, 20 C; native PAGE: 200 uM protein, 5x ssDNA, 25 mM HEPES pH 7.5, 50 mM NaCl, 0.5 mM TCEP, 4 C, 0.5x TBE (KH4 0.5x TAE); conditions: protein: recombinant; tags: His6 removed by TEV
FUBP1 KH2-3 = FUBP1 KH2-3 (UniProt Q96AE4 185-339); assay: as above; conditions: protein: recombinant; tags: His6 removed by TEV
FUBP1 KH1-2 = FUBP1 KH1-2 (UniProt Q96AE4 100-251); assay: as above; conditions: protein: recombinant; tags: His6 removed by TEV
FUBP1 KH1-4 = FUBP1 KH1-4 (UniProt Q96AE4 100-443); assay: ITC; 150 mM NaCl; ITC: 25 mM HEPES pH 7.5, 50 mM NaCl (150 mM for tandem and KH1-4), 0.5 mM TCEP, 20 C; native PAGE: 200 uM protein, 5x ssDNA, 25 mM HEPES pH 7.5, 50 mM NaCl, 0.5 mM TCEP, 4 C, 0.5x TBE (KH4 0.5x TAE); conditions: protein: recombinant; tags: His6 removed by TEV
FUBP1 KH2 [7] = molecular target: T4, FUBP1 KH2; assay: ITC; 50 mM NaCl; Kd only in Fig 3C; ITC: 25 mM HEPES pH 7.5, 50 mM NaCl (150 mM for tandem and KH1-4), 0.5 mM TCEP, 20 C; native PAGE: 200 uM protein, 5x ssDNA, 25 mM HEPES pH 7.5, 50 mM NaCl, 0.5 mM TCEP, 4 C, 0.5x TBE (KH4 0.5x TAE); conditions: protein: recombinant; tags: His6 removed by TEV
FUBP1 KH4 [8] = molecular target: T3, FUBP1 KH4; assay: as above; conditions: protein: recombinant; tags: N-terminal His6 kept in native PAGE; removed by TEV in general protocol
FUBP1 KH1 [9] = molecular target: T2, FUBP1 KH1; assay: as above; conditions: protein: recombinant; tags: His6 removed by TEV
FUBP1 KH3 [10] = molecular target: T1, FUBP1 KH3; assay: ITC; 50 mM NaCl; ITC: 25 mM HEPES pH 7.5, 50 mM NaCl (150 mM for tandem and KH1-4), 0.5 mM TCEP, 20 C; native PAGE: 200 uM protein, 5x ssDNA, 25 mM HEPES pH 7.5, 50 mM NaCl, 0.5 mM TCEP, 4 C, 0.5x TBE (KH4 0.5x TAE); conditions: protein: recombinant; tags: His6 removed by TEV

T3 sequence (Q96AE4 376-443): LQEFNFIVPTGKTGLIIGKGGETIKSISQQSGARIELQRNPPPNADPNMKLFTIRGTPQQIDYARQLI
T4 sequence (Q96AE4 185-251): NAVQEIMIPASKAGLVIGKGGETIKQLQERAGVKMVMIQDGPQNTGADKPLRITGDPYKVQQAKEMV
T1 sequence (Q96AE4 275-339): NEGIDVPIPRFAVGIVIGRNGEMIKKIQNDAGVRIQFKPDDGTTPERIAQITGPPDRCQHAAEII
T2 sequence (Q96AE4 100-164): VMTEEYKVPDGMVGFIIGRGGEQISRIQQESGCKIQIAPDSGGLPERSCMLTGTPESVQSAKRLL
Sequence of FUBP1 KH3-4 (Q96AE4 275-443): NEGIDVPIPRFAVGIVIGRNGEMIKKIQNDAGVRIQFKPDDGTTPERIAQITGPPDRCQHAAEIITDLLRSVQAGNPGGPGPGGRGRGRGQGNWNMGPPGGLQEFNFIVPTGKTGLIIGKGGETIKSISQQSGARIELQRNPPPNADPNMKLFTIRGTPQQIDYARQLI
Sequence of FUBP1 KH1-4 (Q96AE4 100-443): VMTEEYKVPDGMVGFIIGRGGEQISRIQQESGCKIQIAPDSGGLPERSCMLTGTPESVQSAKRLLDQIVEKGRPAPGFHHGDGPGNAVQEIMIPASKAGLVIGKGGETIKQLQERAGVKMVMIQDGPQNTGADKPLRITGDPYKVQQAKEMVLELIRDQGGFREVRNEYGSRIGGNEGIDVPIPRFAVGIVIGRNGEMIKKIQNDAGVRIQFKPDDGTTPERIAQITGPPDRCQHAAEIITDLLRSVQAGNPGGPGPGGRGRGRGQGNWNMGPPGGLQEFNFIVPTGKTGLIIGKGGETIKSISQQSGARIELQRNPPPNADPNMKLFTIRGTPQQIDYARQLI
Sequence of FUBP1 KH1-2 (Q96AE4 100-251): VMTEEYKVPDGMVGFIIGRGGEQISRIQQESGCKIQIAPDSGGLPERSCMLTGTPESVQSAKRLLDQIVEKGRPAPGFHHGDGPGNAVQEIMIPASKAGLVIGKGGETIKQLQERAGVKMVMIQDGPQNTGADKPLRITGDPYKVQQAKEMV
Sequence of FUBP1 KH2-3 (Q96AE4 185-339): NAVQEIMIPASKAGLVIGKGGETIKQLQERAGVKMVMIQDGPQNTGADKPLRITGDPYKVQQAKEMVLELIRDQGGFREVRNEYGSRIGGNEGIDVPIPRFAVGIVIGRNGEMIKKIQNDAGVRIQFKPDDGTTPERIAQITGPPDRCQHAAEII

B1: FUSE fragment 8, 10-mer (native PAGE) (ssDNA)
DNA: TTTGTGTTAA
B1: binds (FUBP1 KH3 [1]); binds (FUBP1 KH1 [2]).

B2: FUSE fragment 7, 8-mer (ITC) (ssDNA)
DNA: TATTTTGT
B2: binds (FUBP1 KH4 [3]); binds (FUBP1 KH2 [4]).

B3: FUSE fragment 4, 10-mer (ssDNA)
DNA: CCCTCGGGAA
B3: no binding (FUBP1 KH2 [5]); no binding (FUBP1 KH4 [6]).

B4: 47-mer c-Myc FUSE (ssDNA)
DNA: ATGTATATTCCCTCGGGATTTTTTATTTTGTGTTATTCCACGGCATG
Work on B4 yielded a Kd (FUBP1 KH3-4) of roughly 5.29 µM, a Kd (FUBP1 KH2-3) of roughly 5.29 µM and a Kd (FUBP1 KH1-2) of roughly 5.29 µM. It also gave a Kd (FUBP1 KH1-4) of roughly 0.085 µM.

B5: FUSE fragment 8, 8-mer (ITC) (ssDNA)
DNA: TTGTGTTA
B5 was tested, and the binding signal (FUBP1 KH2 [7]) was > 5 fold weaker than KH3 (at least), the binding signal (FUBP1 KH4 [8]) was > 5 fold weaker than KH3 (at least) and the binding signal (FUBP1 KH1 [9]) was > 5 fold weaker than KH3 (at least). For the same binder, the Kd (FUBP1 KH3 [10]) was 17 µM.

B6: FUSE fragment 10, 10-mer (ssDNA)
DNA: TTCCACGGAA
B6: no binding (FUBP1 KH2 [5]); no binding (FUBP1 KH4 [6]).
